The results in this text go back to patent US20220143214A1.

Read-outs that look alike come from different tables or passages of the source. Some results are limits rather than exact numbers.

Assay [1] deals with LY6A (Ly6a, C57BL/6J mouse) (mouse (C57BL/6J)) (UniProt P05533). The assay can be described thus: qPCR of viral genomes bound to Ly6a-transfected HEK293T cells. (In general: Quantitative PCR measures a nucleic acid by following its amplification.)
Assay [2] concerns the target LY6C1 (Ly6c1, C57BL/6J mouse, splice variant 1) (mouse (C57BL/6J)) (UniProt P0CW02). Put plainly: AAV library bound to Ly6c1-transfected HEK293T cells, NGS.
Assay [3] addresses LY6A (Ly6a, C57BL/6J mouse) (mouse (C57BL/6J)) (UniProt P05533). The assay can be described thus: AAV library bound to Ly6a-transfected HEK293T cells, NGS.
In assay [4] the target is LY6C1 (Ly6c1, C57BL/6J mouse, splice variant 1) (mouse (C57BL/6J)) (UniProt P0CW02). The assay can be described thus: AAV library bound to Ly6c1-transfected HEK293T cells, NGS. The source holds these as a separate data set.
Assay [5] addresses LY6A (Ly6a, C57BL/6J mouse) (mouse (C57BL/6J)) (UniProt P05533). The assay can be described thus: AAV library bound to Ly6a-transfected HEK293T cells, NGS. The source holds these as a separate data set.
The target is the same in assay [6]. The assay can be described thus: cell-based or functional assay.
Assay [7] has the same target. The assay can be described thus: qPCR of viral genomes bound to BMVECs treated with Ly6a sgRNAs (CRISPR/SaCAS9).
For assay [8] the target is unchanged. The assay can be described thus: binding (qPCR) and transduction of cells with ectopic LY6A.
Assay [9] deals with LY6C1 (Ly6c1, C57BL/6J mouse, splice variant 1) (mouse (C57BL/6J)) (UniProt P0CW02). Put plainly: cell-based or functional assay.

UniProt P05533, sequence (P05533 27-112 limits assumed): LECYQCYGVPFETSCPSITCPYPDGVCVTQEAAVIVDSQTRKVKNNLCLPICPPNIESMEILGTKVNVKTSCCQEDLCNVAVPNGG
UniProt P0CW02, sequence (P0CW02 27-109 limits assumed, change not shown): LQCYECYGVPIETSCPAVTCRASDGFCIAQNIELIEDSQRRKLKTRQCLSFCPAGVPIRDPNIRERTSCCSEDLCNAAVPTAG

In assay [1], AAV-PHP.B3 came in with a fold increase in binding on Ly6a expression above 50 fold.
With AAV9 K449R 7-mer variant TRNGYST, the fold enrichment (log2) in assay [2] was found to be 4.05 log2; in [3], 0.82 log2; in [4], 5.58 log2; in assay [5] it was 0.186 log2.
Substance AAV-PHP.B2 came in with a fold increase in binding on Ly6a expression in assay [1] above 50 fold.
AAV-PHP.eB showed a fold increase in binding on Ly6a expression in assay [1] above 50 fold. In assay [6], this substance showed a transduction of HEK293T cells (Luciferase assay) of 30 fold and a transduction of hCMEC cells (firefly luciferase assay) (logs (base 10)) of 2. The reduction in binding after Ly6a disruption in assay [7] was 50%. The substance also came in with a fold increase in binding and transduction on LY6A expression in assay [8] above 30 fold.
In assay [1], AAV-PHP.B yielded a fold increase in binding on Ly6a expression above 50 fold.
As for AAV9 K449R 7-mer variant C28 (KSVGSVY), the fold enrichment (log2) was 3.59 log2 in assay [2] and -1.24 log2 in assay [5]. In assay [9], the transduction of hCMEC cells (firefly luciferase assay) (logs (base 10)) amounted to 2.
